Assay results reported in paper PMC7374468, “Characterization of highly active 2-keto-3-deoxy-L-arabinonate and 2-keto-3-deoxy-D-xylonate dehydratases in terms of the biotransformation of hemicellulose sugars to chemicals” (Applied Microbiology and Biotechnology, 2020).
Values belong to the molecule of their own block, whether it stands above or below them.

How the values were obtained:
PpD-KdpD = target: T1, PpD-KdpD (Pseudomonas putida, UniProt Q88J13); experiment: coupled assay with PpKGSADH, NADH at […] nm; assay type: biochemical; conditions: read-out: I50
T1 construct: gene PP_2836; C-terminal His6 tag (kept), pET vector, E. coli BL21(DE3), HisTrap purified
T1 sequence (Q88J13 1-405): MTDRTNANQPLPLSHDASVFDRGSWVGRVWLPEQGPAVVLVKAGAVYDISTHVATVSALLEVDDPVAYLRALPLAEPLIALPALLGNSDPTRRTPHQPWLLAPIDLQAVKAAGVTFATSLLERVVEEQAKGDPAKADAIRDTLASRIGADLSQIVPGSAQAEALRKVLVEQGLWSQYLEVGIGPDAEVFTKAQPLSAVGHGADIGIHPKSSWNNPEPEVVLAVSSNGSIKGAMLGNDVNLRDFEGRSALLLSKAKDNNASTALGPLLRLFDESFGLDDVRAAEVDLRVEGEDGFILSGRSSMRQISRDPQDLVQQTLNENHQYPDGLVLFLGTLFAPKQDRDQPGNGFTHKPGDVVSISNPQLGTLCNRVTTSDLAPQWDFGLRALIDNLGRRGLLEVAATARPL

purified protein [1] = substrate: O=C(O)C(=O)C[C@@H](O)CO; experiment: purified protein; assay type: biochemical, Variovorax paradoxus; conditions: 2 mM NAD+ for coupling enzyme, 5 mM MgCl2, 50 mM HEPES pH 7.5, 25 °C
purified protein [2] = substrate: O=C(O)C(=O)C[C@@H](O)CO; experiment: purified protein; assay type: biochemical, Herbaspirillum seropedicae; conditions: 2 mM NAD+ for coupling enzyme, 5 mM MgCl2, 50 mM HEPES pH 7.5, 25 °C
[3] = substrate: O=C(O)C(=O)C[C@H](O)CO; experiment: purified protein, by the assay type; design: coupled assay with PpKGSADH, NADH formation at 340 nm, Michaelis-Menten fit, 25 °C, pH 7.5; conditions: pH 7.5; 25.0 °C
Experimental: To determine dehydratase activity, a coupled-assay with PpKGSADH as auxiliary enzyme was used to link the oxidation of KGSA to α-KG using NAD^+, as was described in a previous study (Beer et al. [2017]). The measurement was performed in a 96-well F-bottom plate (Greiner Bio-One, Germany). 20 μL of a diluted enzyme was added to a 96-well plate. A total of 180 μL of reaction solution containing different concentrations of either D-KDP or L-KDP with 0.5 U/mL PpKGSADH, 2 mM NAD^+, 5 mM MgCl2, 50 mM HEPES pH 7.5 (end concentration) were added subsequently. The measurement was performed with a Multiskan spectrophotometer (Thermo Scientific, Germany) by measuring the development of NADH at 340 nm at 25 °C. Enzyme activity (kcat) was defined as the number of NADH molecules formed per molecule of enzyme per second. Measurements were performed in triplicate.

IC50 (PpD-KdpD): 75 mM
Molecule: O=C(O)[C@H](O)[C@@H](O)[C@H](O)CO [D-xylonate]

B1: VpL-KdpD (Variovorax paradoxus EPS) (protein)
chain: MPKPMNHNLSNPRYRGIFPVVPTTFTEQGALDLESQKRCVDFMIDAGSDGLCILANFSEQFVLSDEEREVLTRTMLEHVKGRVPVIVTTTHYSTKVCAERSRRAQDMGAAMLMVMPPYHGATFRVPEPQIFEFYAGLSDAVSIPIMIQDAPASGTVLSAPFLARMAKEIEHVAYFKIETANAAAKLRELIRLGGDAIEGPWDGEEAITLMPDLDAGATGSMTGGGYPDGIRPIIEAHRAGDRDKAFALYQQWLPLINYENRQAGLLACKSLMKEGGVIACEAPRHPLPAMHPATRAGLIETAKRLDPLVLRWGK
notes: N-terminal His6 tag (kept), pET vector, E. coli BL21(DE3), HisTrap purified
Km (purified protein [1]): 150 ± 10 µM
kcat (purified protein [1]): 21.8 ± 0.2 s⁻¹
kcat/Km (purified protein [1]): 146000 ± 200 M⁻¹ s⁻¹

B2: HsL-KdpD (Herbaspirillum seropedicae SmR1) (protein)
chain: MSTPLYRGVFPVAPTIFDANGKLDLEGQKRAIDFMIDAGSNGLCILANFSEQFVLSDEERVQVQNTVLEHVAGRVPVIVTTTHYGSQICAERSRAAQDAGAAMVMVMPPYHGATFRVPEKQIYEFYKHVSDAIDIPIMIQDAPVAGTPLSAPFLARMAKEIEQVSYFKIETAGAASKLRDLIELGGDAVVGPWDGEEAITLIPDLDAGATGAMTGGGYPDGIRKIVDAYFAGDIEKAAELYMQWLPLINYENRQCGLSACKALMLEGGVIKSDMLRHPQPPLHPKVREGLLRVARRLDPLVLSWGR
notes: as for B1
Km (purified protein [2]): 180 ± 0 µM
kcat (purified protein [2]): 29.6 ± 0.2 s⁻¹
kcat/Km (purified protein [2]): 163900 ± 200 M⁻¹ s⁻¹
Km [3]: 4410 ± 90 µM
kcat [3]: 11.38 ± 0.06 s⁻¹
kcat/Km [3]: 2580 ± 140 M⁻¹ s⁻¹
